The values below come from the RNAGym collection of RNA variant scans (doi:10.7554/elife.90254).

To fix the notation:
B1: LINE1-full (parent)
chain: UACGUAGGUGGUUUUCCCCUGAUAGUGCUAAGGGGGCCUGGAAGUUUGGACUGGGCAGAGCUCAACACAGCGUGGCAAAGUGGCUGUGGCUAGACUGCCUCUCUGGAUUCCUCGUCACUCAGCAGGGCAUCUCUGAGAGAAAUGCC

The data set covers variants of B1. The experiment in a line: self-cleavage, relative activity (ratio to wild type); higher = more cleavage; in vitro, sequencing; the parent is a self-cleaving ribozyme.
Take A43U A124G: the self-cleavage came to 0.71.

In the case of A43U U45C, the self-cleavage is 0.87.

Regarding A43U A64U, the self-cleavage worked out at 0.43.

A42U U119C: the self-cleavage was determined as 1.73.

For the variant A43U U87A, the self-cleavage stood at 0.03.

For A43G U104C, the self-cleavage was 1.68.

As for A43G U104G, the self-cleavage came out at 1.78.

As to G44A A59G, the self-cleavage came out at 0.03.

On to A43C C99U, for which the self-cleavage is 0.98.

Take A43U C110U: the self-cleavage turned out to be 0.83.

In the case of U45A A67U, the self-cleavage was 0.09.

Regarding G44A A140G, the self-cleavage came to 1.34.

A43G A107U: the self-cleavage stood at 0.7.

For A43G A107C, the self-cleavage was 1.17.

As to A43G A107G, the self-cleavage was determined as 1.5.

As for U45G U96C, the self-cleavage came to 0.05.

Turning to A43G U47C, the self-cleavage worked out at 1.31.

Regarding A43G U91C, the self-cleavage is 0.37.

Take A43U U46A: the self-cleavage was 1.24.

A43G A77G: the self-cleavage amounted to 2.07.

G44A A129U: the self-cleavage is 1.43.

On to A43C A138G, for which the self-cleavage came to 1.02.

For the variant A43U A57G, the self-cleavage was 0.89.

Regarding U45G U47A, the self-cleavage was found to be 1.19.

Consider A43G G122A, for which the self-cleavage was determined as 0.19.

As to A43G G105U, the self-cleavage was 1.65.

For A43G C111U, the self-cleavage is 0.93.

In the case of U45C A140U, the self-cleavage was 1.05.

Take A43U U132A: the self-cleavage was found to be 1.15.

U45C G97A: the self-cleavage was determined as 0.07.

Turning to G44A U134G, the self-cleavage was 1.02.

Regarding A43G C90A, the self-cleavage turned out to be 0.07.

In the case of G44A U46C, the self-cleavage was found to be 1.06.

For U45G A92G, the self-cleavage was 0.09.

U45A U96C: the self-cleavage is 0.13.

For the variant A43G C84U, the self-cleavage amounted to 0.16.

Consider A43U A67G, for which the self-cleavage came to 0.56.

In the case of U45C A94U, the self-cleavage stood at 0.33.

For U45G U46C, the self-cleavage came out at 1.31.

As to A43U C103U, the self-cleavage came out at 1.09.

A43U C131A: the self-cleavage is 1.64.

As to U45A U85C, the self-cleavage came to 0.24.

As for A43C A65G, the self-cleavage amounted to 0.

A43U U73A: the self-cleavage was determined as 0.93.

In the case of A43U U73C, the self-cleavage amounted to 1.79.

Turning to U45A A57C, the self-cleavage amounted to 0.14.

With G44C U45C, the self-cleavage was 1.02.

For A43G A78G, the self-cleavage turned out to be 1.2.

Turning to A43G A78U, the self-cleavage was found to be 1.86.

Consider U45C G72A, for which the self-cleavage is 1.25.

In the case of A43G A138G, the self-cleavage was found to be 1.34.

Consider A43U A107U, for which the self-cleavage is 1.81.

For the variant A43G A50U, the self-cleavage came to 0.64.

For the variant U45C C56A, the self-cleavage is 0.06.

As to U45C C56U, the self-cleavage is 0.12.

With A43G G93A, the self-cleavage worked out at 0.1.

Consider A43G A59U, for which the self-cleavage worked out at 0.82.

With U45C A78U, the self-cleavage came to 1.43.

Regarding U45C C99U, the self-cleavage was 1.07.

As for U45C G106U, the self-cleavage is 1.17.

Turning to U45C G106A, the self-cleavage was found to be 2.

As for A43G C99U, the self-cleavage stood at 1.1.

Take U45A G105A: the self-cleavage is 1.56.

As for U45C U81C, the self-cleavage was determined as 0.94.

On to A43U C116U, for which the self-cleavage was found to be 1.12.

Turning to A43G C120U, the self-cleavage was 1.52.

Turning to G44A A67G, the self-cleavage was determined as 0.37.

For A43U U115C, the self-cleavage is 1.21.

In the case of U45C A65G, the self-cleavage turned out to be 0.04.

Regarding U45C A65U, the self-cleavage was found to be 0.22.

Turning to A43G U73A, the self-cleavage turned out to be 1.53.

As for A43G U73C, the self-cleavage was 1.3.

For the variant U45A U47A, the self-cleavage came out at 1.17.

U45A U47C: the self-cleavage was found to be 1.45.

Consider U45C C51A, for which the self-cleavage came to 0.2.

For U45C C51U, the self-cleavage was found to be 1.58.

For G44A A94U, the self-cleavage was found to be 0.

Turning to G44A A94G, the self-cleavage is 0.27.

With U45A A64G, the self-cleavage is 0.57.

As for A43G A79U, the self-cleavage came out at 1.8.

Regarding A43G A79G, the self-cleavage was 0.97.

Regarding A43U A141C, the self-cleavage is 2.43.

Consider A43G U87C, for which the self-cleavage turned out to be 0.32.

With A43G C118U, the self-cleavage is 1.19.

Consider U45C C71U, for which the self-cleavage came out at 0.98.

With U45C C71A, the self-cleavage was 0.15.

Regarding U45A A50G, the self-cleavage is 0.95.

For the variant A43U A129U, the self-cleavage was determined as 1.22.

For the variant U45C U73C, the self-cleavage was found to be 1.92.

As to U45C U73A, the self-cleavage was 1.68.

Consider U45A U115C, for which the self-cleavage was 1.51.

For the variant U45A U115G, the self-cleavage turned out to be 1.17.

Turning to A43U A77U, the self-cleavage was 1.02.

Take U45C U143A: the self-cleavage came out at 1.39.

U45C U143C: the self-cleavage turned out to be 1.7.

Regarding A43G A57C, the self-cleavage is 0.09.

As for A43G A57G, the self-cleavage amounted to 0.78.

With A43G A57U, the self-cleavage is 0.21.

In the case of U45C U62C, the self-cleavage came out at 0.07.

Turning to A43G G86A, the self-cleavage was 0.06.

As for A43G G86U, the self-cleavage stood at 0.03.

As to A43U U104A, the self-cleavage turned out to be 0.98.

Regarding U45A A136U, the self-cleavage stood at 1.9.

In the case of U45A C95U, the self-cleavage came out at 0.18.

Consider U45A A79G, for which the self-cleavage came to 1.39.

Take U45C A121U: the self-cleavage turned out to be 1.13.

On to U45C A121G, for which the self-cleavage worked out at 1.71.

With U45C C66U, the self-cleavage amounted to 0.04.

As to U45G C113A, the self-cleavage amounted to 0.98.

Take U45G G88A: the self-cleavage was found to be 0.06.

U45A A65G: the self-cleavage is 0.07.

Turning to U45C A141U, the self-cleavage worked out at 1.79.

With U45C A59C, the self-cleavage was determined as 0.79.

As to U45C A59U, the self-cleavage was 1.04.

With A43G A142C, the self-cleavage was 1.

For the variant U45G U119G, the self-cleavage was 0.44.

Take U45A C63A: the self-cleavage is 0.05.

With U45A A77U, the self-cleavage worked out at 1.56.

In the case of A43G U46C, the self-cleavage amounted to 0.53.

In the case of A43G U45C, the self-cleavage was 1.1.

Consider U45G A67G, for which the self-cleavage worked out at 0.45.

As to G44A A50U, the self-cleavage is 0.94.

For the variant A43C C66U, the self-cleavage worked out at 0.04.

In the case of G44A A117G, the self-cleavage was found to be 1.21.

For A43U A121U, the self-cleavage stood at 0.79.

For U45A C71U, the self-cleavage was 0.08.

Consider A43G A136U, for which the self-cleavage stood at 1.5.

Turning to A43G A136C, the self-cleavage worked out at 1.18.

With A43G A136G, the self-cleavage turned out to be 1.5.

Consider A43U A94U, for which the self-cleavage was determined as 0.24.

In the case of A43G G48U, the self-cleavage is 1.28.

On to G44C A117U, for which the self-cleavage was 1.53.

With A43G U119C, the self-cleavage was determined as 1.51.

On to A43G A124C, for which the self-cleavage was determined as 1.96.

Turning to A43G A124U, the self-cleavage came out at 1.38.

In the case of A43G A124G, the self-cleavage was 1.05.

U45A U46G: the self-cleavage is 1.29.

In the case of A43G G74A, the self-cleavage was found to be 1.17.

Consider A43U U108A, for which the self-cleavage was 1.46.

For A43U U108C, the self-cleavage is 1.08.

Consider U45A A78G, for which the self-cleavage was determined as 1.11.

U45C U100C: the self-cleavage came out at 1.93.

On to U45C U100A, for which the self-cleavage is 0.58.

Take U45A U100C: the self-cleavage came to 1.05.

U45A U104C: the self-cleavage was found to be 1.77.

On to A43G G80A, for which the self-cleavage stood at 1.48.

As for A43G G127A, the self-cleavage came out at 0.98.

Turning to A43G G127C, the self-cleavage was 0.77.

As to A43G U100C, the self-cleavage was determined as 1.65.

Take A43U U134C: the self-cleavage was determined as 1.26.

With A43U G72A, the self-cleavage was 1.38.

As for G44A U47C, the self-cleavage is 1.51.

With U45C C131A, the self-cleavage was 1.67.

On to A43G C146U, for which the self-cleavage worked out at 1.69.

Take U45C U47A: the self-cleavage came out at 1.3.

With A43G A64U, the self-cleavage stood at 0.4.

In the case of A43G A64G, the self-cleavage turned out to be 0.32.

As for U45A C51G, the self-cleavage was determined as 1.44.

Take A43G A69C: the self-cleavage turned out to be 0.13.

For the variant A43G U81C, the self-cleavage was found to be 1.32.

On to U45C G80A, for which the self-cleavage worked out at 2.16.

Regarding U45A A141U, the self-cleavage is 1.01.

Consider A43G C116U, for which the self-cleavage stood at 1.22.

With A43G G70A, the self-cleavage was determined as 0.11.

Regarding A43G G70U, the self-cleavage turned out to be 0.15.

Turning to U45G A121C, the self-cleavage is 2.14.

On to U45G A121G, for which the self-cleavage was 0.46.
